Results: publication PMC4728371 (Genome Research, 2016)

Biological target: the molecule itself
Test: SEC-MALS

B1: ZAK LZ-SAM (residues 286-410), purified (domain or fragment, human, UniProt Q9NYL2-1 286-410, looked up)
chain: EIEATLERLKKLERDLSFKEQELKERERRLKMWEQKLTEQSNTPLLPSFEIGAWTEDDVYCWVQQLVRKGDSSAEMSVYASLFKENNITGKRLLLLEEEDLKDMGIVSKGHIIHFKSAIEKLTHD
**Q.** How did the “stoichiometry N” value turn out when B1 was run?
**A.** The value was 2.
